Measurements as given in patent publication US20240035010, “COMPOSITIONS COMPRISING A VARIANT POLYPEPTIDE AND USES THEREOF” (Arbor Biotechnologies, Inc., published 2024).

Columns and labels:
[1] = target: T1, variant nuclease D590G combination (P14R, D32R, I61R, E311R, D590G); assay: cell_activity; PAM 5'-TTTA-3'; conditions: tags: pcDNA3.1 expression
T1 chain: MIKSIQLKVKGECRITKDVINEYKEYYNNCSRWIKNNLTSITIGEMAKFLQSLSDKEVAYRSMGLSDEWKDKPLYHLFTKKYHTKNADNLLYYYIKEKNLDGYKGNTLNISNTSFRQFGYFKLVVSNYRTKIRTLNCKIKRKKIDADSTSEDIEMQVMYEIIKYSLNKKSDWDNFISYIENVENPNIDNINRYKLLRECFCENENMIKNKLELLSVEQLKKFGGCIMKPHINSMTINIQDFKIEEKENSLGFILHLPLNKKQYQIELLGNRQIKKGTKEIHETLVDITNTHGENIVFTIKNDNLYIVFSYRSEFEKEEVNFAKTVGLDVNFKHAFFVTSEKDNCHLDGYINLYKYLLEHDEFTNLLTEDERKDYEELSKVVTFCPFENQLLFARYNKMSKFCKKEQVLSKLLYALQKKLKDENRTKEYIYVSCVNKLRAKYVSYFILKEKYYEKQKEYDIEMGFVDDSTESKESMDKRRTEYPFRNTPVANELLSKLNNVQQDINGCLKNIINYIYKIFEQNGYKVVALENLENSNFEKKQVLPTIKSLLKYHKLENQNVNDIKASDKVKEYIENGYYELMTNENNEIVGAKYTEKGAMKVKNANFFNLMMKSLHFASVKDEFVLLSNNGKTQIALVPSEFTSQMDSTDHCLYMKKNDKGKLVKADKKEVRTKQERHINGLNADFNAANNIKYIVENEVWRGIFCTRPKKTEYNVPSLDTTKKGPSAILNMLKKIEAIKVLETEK
Description: (§1) Approximately 16 hours prior to transfection, 25,000 HEK293T cells in DMEM/10% FBS+Pen/Strep (D10 media) were plated into each well of a 96-well plate. On the day of transfection, the cells were 70-90% confluent. For each well to be transfected, a mixture of Lipofectamine 2000™ and Opti-MEM™ was prepared and incubated at room temperature for 5 minutes (Solution 1). After incubation, the Lipofectamine 2000™:Opti-MEM™ mixture was added to a separate mixture containing nuclease plasmid, RNA guide plasmid, and Opti-MEM™ (Solution 2). In the case of negative controls, the RNA guide plasmid was not included in Solution 2. Solutions 1 and 2 were mixed by pipetting up and down, then incubated at room temperature for 25 minutes. Following incubation, the Solution 1 and 2 mixture was added dropwise to each well of a 96-well plate containing the cells. Approximately 72 hours post transfection, cells were trypsinized by adding TrypLE™ to the center of each well and incubating at 37° C. for approximately 5 minutes. D10 media was then added to each well and mixed to resuspend cells. The resuspended cells were centrifuged at 500 g for 10 minutes to obtain a pellet, and the supernatant was discarded. The cell pellet was then resuspended in QuickExtract™ buffer (Lucigen®), and cells were incubated at 65° C. for 15 minutes, 68° C. for 15 minutes, and 98° C. for 10 minutes.
(§2) This Example describes assessment of indel activity at multiple target sites using the wild-type polypeptide of SEQ ID NO: 3 or variant polypeptides of Table 4. The variant polypeptides were cloned into a pcDNA3.1 backbone (Invitrogen), and the cells were transfected as described in Example 7.
(§3) The percentage of NGS reads containing indels (% indels) were calculated. For each variant polypeptide and target, % indels were averaged across two bioreplicates and two technical replicates. These values were then compared to % indels of the wild-type polypeptide of SEQ ID NO: 3.

[2] = target: T2, variant nuclease E154G combination (P14R, D32R, I61R, E311R, E154G); assay: cell_activity; PAM 5'-TTTA-3'; conditions: tags: pcDNA3.1 expression
T2 chain: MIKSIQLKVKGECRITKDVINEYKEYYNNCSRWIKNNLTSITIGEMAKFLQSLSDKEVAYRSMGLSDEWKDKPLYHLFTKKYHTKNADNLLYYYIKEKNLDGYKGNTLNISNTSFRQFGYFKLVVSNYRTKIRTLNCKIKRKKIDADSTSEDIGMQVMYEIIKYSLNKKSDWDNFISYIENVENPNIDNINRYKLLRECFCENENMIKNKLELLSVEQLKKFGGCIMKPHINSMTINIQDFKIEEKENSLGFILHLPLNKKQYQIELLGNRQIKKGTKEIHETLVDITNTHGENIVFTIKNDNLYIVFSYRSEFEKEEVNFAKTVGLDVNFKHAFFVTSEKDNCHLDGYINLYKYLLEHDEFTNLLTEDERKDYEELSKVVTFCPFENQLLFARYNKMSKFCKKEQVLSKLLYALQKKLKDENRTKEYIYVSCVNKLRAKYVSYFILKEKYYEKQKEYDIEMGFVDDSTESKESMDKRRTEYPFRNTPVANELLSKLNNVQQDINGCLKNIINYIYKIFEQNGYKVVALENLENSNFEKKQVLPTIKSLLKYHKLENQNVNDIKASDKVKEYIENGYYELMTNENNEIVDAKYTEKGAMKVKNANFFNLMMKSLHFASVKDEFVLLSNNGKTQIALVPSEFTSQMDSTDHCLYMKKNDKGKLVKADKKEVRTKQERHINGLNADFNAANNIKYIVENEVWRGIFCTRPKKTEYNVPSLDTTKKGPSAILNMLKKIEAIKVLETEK
Description: as §1, §2, §3

B1: VEGFA crRNA ; VEGFA target (ssRNA ; dsDNA)
RNA: CUUGUUGUAUAUGUCCUUUUAUAGGUAUUAAACAACUCCAGACCACCAAUGGGCAC
DNA 1: TCCAGACCACCAATGGGCAC
DNA 2: GTGCCCATTGGTGGTCTGGA
indel activity [1]: 2.68 fold of WT | indel activity [2]: 2.65 fold of WT
